The data set concerns the target T1, endothelial nitric oxide synthase (eNOS), purified, unphosphorylated (UniProt P29473).
T1 sequence: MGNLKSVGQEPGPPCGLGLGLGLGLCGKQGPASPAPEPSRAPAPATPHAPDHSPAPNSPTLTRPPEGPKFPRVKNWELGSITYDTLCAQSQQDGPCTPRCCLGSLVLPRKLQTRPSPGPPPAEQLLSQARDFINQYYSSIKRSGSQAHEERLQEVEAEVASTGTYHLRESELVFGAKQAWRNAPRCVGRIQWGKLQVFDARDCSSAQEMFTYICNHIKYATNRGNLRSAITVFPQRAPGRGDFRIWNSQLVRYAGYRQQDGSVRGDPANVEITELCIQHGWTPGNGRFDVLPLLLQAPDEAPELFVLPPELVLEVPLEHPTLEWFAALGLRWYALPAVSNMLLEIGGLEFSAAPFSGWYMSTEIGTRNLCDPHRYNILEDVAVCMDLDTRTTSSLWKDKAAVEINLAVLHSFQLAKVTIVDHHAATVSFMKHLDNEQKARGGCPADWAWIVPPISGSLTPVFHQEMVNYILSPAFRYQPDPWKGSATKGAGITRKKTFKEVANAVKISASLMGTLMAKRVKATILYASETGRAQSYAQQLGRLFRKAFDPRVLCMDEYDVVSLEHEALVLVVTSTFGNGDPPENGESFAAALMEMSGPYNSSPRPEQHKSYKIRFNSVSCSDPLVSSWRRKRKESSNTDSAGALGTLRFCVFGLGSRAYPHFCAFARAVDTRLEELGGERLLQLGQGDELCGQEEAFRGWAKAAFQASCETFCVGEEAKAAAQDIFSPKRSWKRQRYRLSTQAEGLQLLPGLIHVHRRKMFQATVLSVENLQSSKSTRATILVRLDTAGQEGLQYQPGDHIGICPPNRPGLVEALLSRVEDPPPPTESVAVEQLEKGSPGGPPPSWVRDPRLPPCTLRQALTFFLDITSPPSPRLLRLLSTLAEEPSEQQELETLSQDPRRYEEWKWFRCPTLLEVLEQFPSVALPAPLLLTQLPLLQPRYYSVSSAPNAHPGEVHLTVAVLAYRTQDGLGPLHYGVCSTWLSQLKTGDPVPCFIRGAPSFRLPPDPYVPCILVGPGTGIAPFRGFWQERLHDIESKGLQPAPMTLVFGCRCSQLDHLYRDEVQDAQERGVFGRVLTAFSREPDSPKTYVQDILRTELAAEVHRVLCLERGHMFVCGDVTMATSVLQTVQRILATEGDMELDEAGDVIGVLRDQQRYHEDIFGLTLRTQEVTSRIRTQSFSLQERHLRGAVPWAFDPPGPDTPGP

With Phosphorylated His-p38 (p38 MAP kinase), the “NO production (hemoglobin capture assay)” value is recorded as “Weak inhibition of NO formation by 1 µM p38 in the presence of 0.6 µM CaM was observed; NO production was reduced by an average of 30%”.

The values above are taken from patent publication US20150232576.
